In article PMC13225215, “Kinetic properties of optogenetic site-specific DNA recombination by LiCre-loxP”:

Key:
[1] = target: LiCre (asLOV2-Cre chimera) (synthetic chimera (Avena sativa LOV2?)) (UniProt P06956); assay: SPR; details: SPR (Biacore T200, SA chip): 20 mM Tris pH 7.4, 50 mM KCl, 150 mM NaCl, 10 mM MgCl2, 1 mM DTT, 0.05% P20; 25 C; 0.3125-10 nM protein; no blue light
[2] = target: Cre recombinase (UniProt P06956 1-343); assay: SPR; KD1, first unit; global kinetic fit of half and full site data; 10 mM Mg2+; no blue light; SPR (Biacore T200, SA chip): 20 mM Tris pH 7.4, 50 mM KCl, 150 mM NaCl, 10 mM MgCl2, 1 mM DTT, 0.05% P20; 25 C; 0.3125-10 nM protein; no blue light; details: protein: recombinant; tags: N-terminal 6xHis; chain copies: 2; label: 5'-biotin on 1Y70; blunt

CGGAATTCACAACTTCGTATAATGTATGCTATACGAAGTTATGGATCCGC (double strand) [full loxP (1Y68/1Y69)]
Kd [1]: 0.0061 nM

CGGAATTCAGATCTATAACTTCGTATAATGTGTCTAGAGGATCCGC (double strand) [half loxP (1Y70/1Y71)]
Kd [1]: 0.49 nM

B1: half loxP (1Y70/1Y71) (dsDNA)
DNA 1: CGGAATTCAGATCTATAACTTCGTATAATGTGTCTAGAGGATCCGC
DNA 2: GCGGATCCTCTAGACACATTATACGAAGTTATAGATCTGAATTCCG
Kd [2]: 1.15 nM
